# Results: US20150044701A1, “IgA-BINDING PEPTIDE AND IgA PURIFICATION USING THE SAME” (KAGOSHIMA UNIVERSITY, priority 2011, published 2015)
# No end group written: not given here.
# Biological target: human IgA (human)
# Experiment: SPR (Biacore T100)
# Details: not given
row,Molecule,Kd [nM]
1,HMVCLSYRGRPVCF (not fully specified (bridges); cysteine pairing not given here) [Opt2 14AA],603
2,HMVCLSYRGRPVCFS (not fully specified (bridges); cysteine pairing not given here) [Opt2 15AA],491
3,HQVCLSYRGRPVCFSL (not fully specified (bridges); cysteine pairing not given here) [Opt2 M2Q],23
4,HQVCLSYRGRPVCYSL (not fully specified (bridges); cysteine pairing not given here) [Opt2 M2Q F14Y],624
5,HQVCLSYRGRPVCFST (not fully specified (bridges); cysteine pairing not given here) [Opt2 M2Q L16T],72

# Next, values leading:
row,Kd [nM],Molecule
1,2820,HQVCLSYRGQPTCFST (not fully specified (bridges); cysteine pairing not given here) [Opt2 M2Q L16T R10 Q V12T]
2,65,HQVCLSYRGQPVCFSL (not fully specified (bridges); cysteine pairing not given here) [Opt2 M2Q R10Q]
3,149,HQVCLSYRGRPTCFSL (not fully specified (bridges); cysteine pairing not given here) [Opt2 M2Q V12T]
4,699,HQVCLSYRGQPVCFST (not fully specified (bridges); cysteine pairing not given here) [Opt2 M2Q L16T R10Q]
5,952,HQVCLSYRGRPTCFST (not fully specified (bridges); cysteine pairing not given here) [Opt2 M2Q L16T V12T]

# Biological target: human IgA
# Experiment: Surface plasmon resonance analysis (BiaCore T100) of peptide binding to human IgA
# Details: binding affinity to human IgA
# Protocol: In order to verify binding specificity of such peptides, binding strength was evaluated via surface plasmon resonance analysis using a BiaCore T100 (GE Healthcare).
row,Molecule,Kd [nM]
1,HMVCLSYRGRPVCF [Opt2 14AA],603
2,HMVCLSYRGRPVCFS [Opt2 15AA],491
3,HQVCLSYRGRPVCYSL [Opt2 M2Q F14Y],624

# Second part, the molecule after the results:
row,Kd [nM],Molecule
1,2820,HQVCLSYRGQPTCFST [Opt2 M2Q L16T R10 Q V12T]
2,65,HQVCLSYRGQPVCFSL [Opt2 M2Q R10Q]
3,699,HQVCLSYRGQPVCFST [Opt2 M2Q L16T R10Q]
4,149,HQVCLSYRGRPTCFSL [Opt2 M2Q V12T]
5,952,HQVCLSYRGRPTCFST [Opt2 M2Q L16T V12T]
6,23,HQVCLSYRGRPVCFSL [Opt2 M2Q]
7,72,HQVCLSYRGRPVCFST [Opt2 M2Q L16T]
